We go through three molecules from PMC3056899.

Data set [1] deals with CFIm25;CFIm68 RRM (human;human, UniProt O43809;Q16630 1-227;13-235, |). Nature of the data set: EMSA.
Data set [2] addresses CFIm25 (human, UniProt O43809 1-227). Put plainly: EMSA. (In general: Mobility shift assays separate free from complexed probe on a gel.)
Data set [3] deals with T1, CFIm25 delN21 (crystal);CFIm68 N13-235 (crystal) (human;human, UniProt O43809;Q16630 21-227;13-235, |). Nature of the data set: X-ray crystallography.
Data set [4] has as its target T1, CFIm25 delN21 (crystal);CFIm68 N13-235 …. Nature of the data set: X-ray crystallography. The source holds these as a separate data set.

Like-named read-outs stand apart in the source and are kept apart here.

T1 sequence (O43809 21-227, chain 1 of 2): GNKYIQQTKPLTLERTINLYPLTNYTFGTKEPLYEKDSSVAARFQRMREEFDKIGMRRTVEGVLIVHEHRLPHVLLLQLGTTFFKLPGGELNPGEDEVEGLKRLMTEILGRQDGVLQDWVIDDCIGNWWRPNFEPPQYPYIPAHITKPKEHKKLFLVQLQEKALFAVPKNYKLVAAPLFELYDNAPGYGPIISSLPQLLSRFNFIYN
T1 sequence (Q16630 13-235, chain 2 of 2): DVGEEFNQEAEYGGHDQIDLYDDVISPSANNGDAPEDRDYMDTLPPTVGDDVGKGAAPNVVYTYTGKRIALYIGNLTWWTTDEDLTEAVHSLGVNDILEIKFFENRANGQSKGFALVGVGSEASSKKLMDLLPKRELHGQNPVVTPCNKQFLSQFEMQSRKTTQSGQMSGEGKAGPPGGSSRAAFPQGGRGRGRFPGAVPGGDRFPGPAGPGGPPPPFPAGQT
Sequence of CFIm25;CFIm68 RRM (O43809 whole entry, chain 1 of 2): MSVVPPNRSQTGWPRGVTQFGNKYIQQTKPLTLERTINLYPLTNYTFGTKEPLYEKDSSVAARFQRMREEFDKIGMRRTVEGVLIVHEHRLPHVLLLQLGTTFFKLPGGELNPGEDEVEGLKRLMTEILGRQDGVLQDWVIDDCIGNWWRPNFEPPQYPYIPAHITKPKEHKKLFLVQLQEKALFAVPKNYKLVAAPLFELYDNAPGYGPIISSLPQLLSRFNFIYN
Sequence of CFIm25;CFIm68 RRM (Q16630 13-235, chain 2 of 2): as the sequence (Q16630 13-235, chain 2 of 2) above
Sequence of CFIm25 (O43809 whole entry): as the sequence (O43809 whole entry, chain 1 of 2) above

The Kd is the equilibrium constant for the complex coming apart. Read a low Kd as a tighter complex. Take GGGUGUAAAACAGAUGAUGUAU (ssRNA) [PAPOLA upstream element as printed]: the Kd in data set [1] came out at 222 nM; in data set [2], 645 nM.

Take UUGUAU (ssRNA) [6-mer RNA]: the binding result in data set [3] is given as “binds”. For UAUUUUGUA (ssRNA) [9-mer RNA], in data set [4], the binding result is on record as “binds”.
